Molecular target: monomeric biotinylated FN7-10 (biotin (biotinylated; site not stated))
Test: SPR

B1: purified recombinant human αvβ6 integrin (receptor)
chain 1: FNLDVDSPAEYSGPEGSYFGFAVDFFVPSASSRMFLLVGAPKANTTQPGIVEGGQVLKCDWSSTRRCQPIEFDATGNRDYAKDDPLEFKSHQWFGASVRSKQDKILACAPLYHWRTEMKQEREPVGTCFLQDGTKTVEYAPCRSQDIDADGQGFCQGGFSIDFTKADRVLLGGPGSFYWQGQLISDQVAEIVSKYDPNVYSIKYNNQLATRTAQAIFDDSYLGYSVAVGDFNGDGIDDFVSGVPRAARTLGMVYIYDGKNMSSLYNFTGEQMAAYFGFSVAATDINGDDYADVFIGAPLFMDRGSDGKLQEVGQVSVSLQRASGDFQTTKLNGFEVFARFGSAIAPLGDLDQDGFNDIAIAAPYGGEDKKGIVYIFNGRSTGLNAVPSQILEGQWAARSMPPSFGYSMKGATDIDKNGYPDLIVGAFGVDRAILYRARPVITVNAGLEVYPSILNQDNKTCSLPGTALKVSCFNVRFCLKADGKGVLPRKLNFQVELLLDKLKQKGAIRRALFLYSRSPSHSKNMTISRGGLMQCEELIAYLRDESEFRDKLTPITIFMEYRLDYRTAADTTGLQPILNQFTPANISRQAHILLDCGEDNVCKPKLEVSVDSDQKKIYIGDDNPLTLIVKAQNQGEGAYEAELIVSIPLQADFIGVVRNNEALARLSCAFKTENQTRQVVCDLGNPMKAGTQLLAGLRFSVHQQSEMDTSVKFDLQIQSSNLFDKVSPVVSHKVDLAVLAAVEIRGVSSPDHVFLPIPNWEHKENPETEEDVGPVVQHIYELRNNGPSSFSKAMLHLQWPYKYNNNTLLYILHYDIDGPMNCTSDMEINPLRIKISSLQTTEKNDTVAGQGERDHLITKRDLALSEGDIHTLGCGVAQCLKIVCQVGRLDRGKSAILYVKSLLWTETFMNKENQNHSYSLKSSASFNVIEFPYKNLPIEDITNSTLVTTNVTWGIQPAPMPV
chain 2: GCALGGAETCEDCLLIGPQCAWCAQENFTHPSGVGERCDTPANLLAKGCQLNFIENPVSQVEILKNKPLSVGRQKNSSDIVQIAPQSLILKLRPGGAQTLQVHVRQTEDYPVDLYYLMDLSASMDDDLNTIKELGSRLSKEMSKLTSNFRLGFGSFVEKPVSPFVKTTPEEIANPCSSIPYFCLPTFGFKHILPLTNDAERFNEIVKNQKISANIDTPEGGFDAIMQAAVCKEKIGWRNDSLHLLVFVSDADSHFGMDSKLAGIVIPNDGLCHLDSKNEYSMSTVLEYPTIGQLIDKLVQNNVLLIFAVTQEQVHLYENYAKLIPGATVGLLQKDSGNILQLIISAYEELRSEVELEVLGDTEGLNLSFTAICNNGTLFQHQKKCSHMKVGDTASFSVTVNIPHCERRSRHIIIKPVGLGDALELLVSPECNCDCQKEVEVNSSKCHHGNGSFQCGVCACHPGHMGPRCECGEDMLSTDSCKEAPDHPSCSGRGDCYCGQCICHLSPYGNIYGPYCQCDNFSCVRHKGLLCGGNGDCDCGECVCRSGWTGEYCNCTTSTDSCVSEDGVLCSGRGDCVCGKCVCTNPGASGPTCERCPTCGDPCNSKRSCIECHLSAAGQAREECVDKCKLAGATISEEEDFSKDGSVSCSLQGENECLITFLITTDNEGKTIIHSINEKDCPKPPNIP
kont relative to α5β1: ~0.5 fold

— paper PMC4031069 (Nature materials, 2014)
